Data taken from patent publication US20210388087A1.

target: Human CD137 ECD (human); assay: SPR, vs parent H183/L072
Sequence (chain, as listed by the source limits assumed): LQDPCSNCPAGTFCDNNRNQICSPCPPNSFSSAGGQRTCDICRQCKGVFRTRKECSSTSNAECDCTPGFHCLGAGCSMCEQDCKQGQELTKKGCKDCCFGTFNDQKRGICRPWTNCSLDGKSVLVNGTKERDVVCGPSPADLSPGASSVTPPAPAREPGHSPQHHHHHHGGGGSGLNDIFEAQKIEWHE

| fold change of affinity [fold] | Binder |
| --- | --- |
| 0 | dBBDu183H V100iD / dBBDu072L (antibody, name in Kabat numbering, V domains shown) VH: QVQLVESGGGLVQPGRSLRLSCAASGFTFSNAWMHWVRQAPGKGLEWVAQIKDKGNAYAAYYAPSVKGRFTISRDDSKNSIYLQMNSLKTEDTAVYYCHYVHYASASTVLPAFGDDAWGQGTTVTVSS VL: DIVMTQSPLSLPVTPGEPASISCQASQELVHMNRNTYLHWYQQKPGQAPRLLIYKVSNRFPGVPDRFSGSGSGTDFTLKISRVEAEDVGVYYCAQGTSVPFTFGQGTKLEIK |
| 0 | dBBDu183H Y94H / dBBDu072L (antibody, name in Kabat numbering, V domains shown) VH: QVQLVESGGGLVQPGRSLRLSCAASGFTFSNAWMHWVRQAPGKGLEWVAQIKDKGNAYAAYYAPSVKGRFTISRDDSKNSIYLQMNSLKTEDTAVYYCHHVHYASASTVLPAFGVDAWGQGTTVTVSS VL: DIVMTQSPLSLPVTPGEPASISCQASQELVHMNRNTYLHWYQQKPGQAPRLLIYKVSNRFPGVPDRFSGSGSGTDFTLKISRVEAEDVGVYYCAQGTSVPFTFGQGTKLEIK |
| 0 | dBBDu183H T100bE / dBBDu072L (antibody, name in Kabat numbering, V domains shown) VH: QVQLVESGGGLVQPGRSLRLSCAASGFTFSNAWMHWVRQAPGKGLEWVAQIKDKGNAYAAYYAPSVKGRFTISRDDSKNSIYLQMNSLKTEDTAVYYCHYVHYASASEVLPAFGVDAWGQGTTVTVSS VL: DIVMTQSPLSLPVTPGEPASISCQASQELVHMNRNTYLHWYQQKPGQAPRLLIYKVSNRFPGVPDRFSGSGSGTDFTLKISRVEAEDVGVYYCAQGTSVPFTFGQGTKLEIK |
| 0 | dBBDu183H G100hE / dBBDu072L (antibody, name in Kabat numbering, V domains shown) VH: QVQLVESGGGLVQPGRSLRLSCAASGFTFSNAWMHWVRQAPGKGLEWVAQIKDKGNAYAAYYAPSVKGRFTISRDDSKNSIYLQMNSLKTEDTAVYYCHYVHYASASTVLPAFEVDAWGQGTTVTVSS VL: DIVMTQSPLSLPVTPGEPASISCQASQELVHMNRNTYLHWYQQKPGQAPRLLIYKVSNRFPGVPDRFSGSGSGTDFTLKISRVEAEDVGVYYCAQGTSVPFTFGQGTKLEIK |
| 0 | dBBDu183H A100H / dBBDu072L (antibody, name in Kabat numbering, V domains shown) VH: QVQLVESGGGLVQPGRSLRLSCAASGFTFSNAWMHWVRQAPGKGLEWVAQIKDKGNAYAAYYAPSVKGRFTISRDDSKNSIYLQMNSLKTEDTAVYYCHYVHYASHSTVLPAFGVDAWGQGTTVTVSS VL: DIVMTQSPLSLPVTPGEPASISCQASQELVHMNRNTYLHWYQQKPGQAPRLLIYKVSNRFPGVPDRFSGSGSGTDFTLKISRVEAEDVGVYYCAQGTSVPFTFGQGTKLEIK |
| 0 | dBBDu183H V95H / dBBDu072L (antibody, name in Kabat numbering, V domains shown) VH: QVQLVESGGGLVQPGRSLRLSCAASGFTFSNAWMHWVRQAPGKGLEWVAQIKDKGNAYAAYYAPSVKGRFTISRDDSKNSIYLQMNSLKTEDTAVYYCHYHHYASASTVLPAFGVDAWGQGTTVTVSS VL: DIVMTQSPLSLPVTPGEPASISCQASQELVHMNRNTYLHWYQQKPGQAPRLLIYKVSNRFPGVPDRFSGSGSGTDFTLKISRVEAEDVGVYYCAQGTSVPFTFGQGTKLEIK |
| 0 | dBBDu183H A102D / dBBDu072L (antibody, name in Kabat numbering, V domains shown) VH: QVQLVESGGGLVQPGRSLRLSCAASGFTFSNAWMHWVRQAPGKGLEWVAQIKDKGNAYAAYYAPSVKGRFTISRDDSKNSIYLQMNSLKTEDTAVYYCHYVHYASASTVLPAFGVDDWGQGTTVTVSS VL: DIVMTQSPLSLPVTPGEPASISCQASQELVHMNRNTYLHWYQQKPGQAPRLLIYKVSNRFPGVPDRFSGSGSGTDFTLKISRVEAEDVGVYYCAQGTSVPFTFGQGTKLEIK |
| 0 | dBBDu183H S99E / dBBDu072L (antibody, name in Kabat numbering, V domains shown) VH: QVQLVESGGGLVQPGRSLRLSCAASGFTFSNAWMHWVRQAPGKGLEWVAQIKDKGNAYAAYYAPSVKGRFTISRDDSKNSIYLQMNSLKTEDTAVYYCHYVHYAEASTVLPAFGVDAWGQGTTVTVSS VL: DIVMTQSPLSLPVTPGEPASISCQASQELVHMNRNTYLHWYQQKPGQAPRLLIYKVSNRFPGVPDRFSGSGSGTDFTLKISRVEAEDVGVYYCAQGTSVPFTFGQGTKLEIK |
| 0 | dBBDu183H S100aH / dBBDu072L (antibody, name in Kabat numbering, V domains shown) VH: QVQLVESGGGLVQPGRSLRLSCAASGFTFSNAWMHWVRQAPGKGLEWVAQIKDKGNAYAAYYAPSVKGRFTISRDDSKNSIYLQMNSLKTEDTAVYYCHYVHYASAHTVLPAFGVDAWGQGTTVTVSS VL: DIVMTQSPLSLPVTPGEPASISCQASQELVHMNRNTYLHWYQQKPGQAPRLLIYKVSNRFPGVPDRFSGSGSGTDFTLKISRVEAEDVGVYYCAQGTSVPFTFGQGTKLEIK |
| 0 | dBBDu183H Y97H / dBBDu072L (antibody, name in Kabat numbering, V domains shown) VH: QVQLVESGGGLVQPGRSLRLSCAASGFTFSNAWMHWVRQAPGKGLEWVAQIKDKGNAYAAYYAPSVKGRFTISRDDSKNSIYLQMNSLKTEDTAVYYCHYVHHASASTVLPAFGVDAWGQGTTVTVSS VL: DIVMTQSPLSLPVTPGEPASISCQASQELVHMNRNTYLHWYQQKPGQAPRLLIYKVSNRFPGVPDRFSGSGSGTDFTLKISRVEAEDVGVYYCAQGTSVPFTFGQGTKLEIK |
| 0 | dBBDu183H Y94E / dBBDu072L (antibody, name in Kabat numbering, V domains shown) VH: QVQLVESGGGLVQPGRSLRLSCAASGFTFSNAWMHWVRQAPGKGLEWVAQIKDKGNAYAAYYAPSVKGRFTISRDDSKNSIYLQMNSLKTEDTAVYYCHEVHYASASTVLPAFGVDAWGQGTTVTVSS VL: DIVMTQSPLSLPVTPGEPASISCQASQELVHMNRNTYLHWYQQKPGQAPRLLIYKVSNRFPGVPDRFSGSGSGTDFTLKISRVEAEDVGVYYCAQGTSVPFTFGQGTKLEIK |
| 0 | dBBDu183H H93E / dBBDu072L (antibody, name in Kabat numbering, V domains shown) VH: QVQLVESGGGLVQPGRSLRLSCAASGFTFSNAWMHWVRQAPGKGLEWVAQIKDKGNAYAAYYAPSVKGRFTISRDDSKNSIYLQMNSLKTEDTAVYYCEYVHYASASTVLPAFGVDAWGQGTTVTVSS VL: DIVMTQSPLSLPVTPGEPASISCQASQELVHMNRNTYLHWYQQKPGQAPRLLIYKVSNRFPGVPDRFSGSGSGTDFTLKISRVEAEDVGVYYCAQGTSVPFTFGQGTKLEIK |
| 0 | dBBDu183H A100fE / dBBDu072L (antibody, name in Kabat numbering, V domains shown) VH: QVQLVESGGGLVQPGRSLRLSCAASGFTFSNAWMHWVRQAPGKGLEWVAQIKDKGNAYAAYYAPSVKGRFTISRDDSKNSIYLQMNSLKTEDTAVYYCHYVHYASASTVLPEFGVDAWGQGTTVTVSS VL: DIVMTQSPLSLPVTPGEPASISCQASQELVHMNRNTYLHWYQQKPGQAPRLLIYKVSNRFPGVPDRFSGSGSGTDFTLKISRVEAEDVGVYYCAQGTSVPFTFGQGTKLEIK |
| 0 | dBBDu183H H96E / dBBDu072L (antibody, name in Kabat numbering, V domains shown) VH: QVQLVESGGGLVQPGRSLRLSCAASGFTFSNAWMHWVRQAPGKGLEWVAQIKDKGNAYAAYYAPSVKGRFTISRDDSKNSIYLQMNSLKTEDTAVYYCHYVEYASASTVLPAFGVDAWGQGTTVTVSS VL: DIVMTQSPLSLPVTPGEPASISCQASQELVHMNRNTYLHWYQQKPGQAPRLLIYKVSNRFPGVPDRFSGSGSGTDFTLKISRVEAEDVGVYYCAQGTSVPFTFGQGTKLEIK |
| 0 | dBBDu183H Y97E / dBBDu072L (antibody, name in Kabat numbering, V domains shown) VH: QVQLVESGGGLVQPGRSLRLSCAASGFTFSNAWMHWVRQAPGKGLEWVAQIKDKGNAYAAYYAPSVKGRFTISRDDSKNSIYLQMNSLKTEDTAVYYCHYVHEASASTVLPAFGVDAWGQGTTVTVSS VL: DIVMTQSPLSLPVTPGEPASISCQASQELVHMNRNTYLHWYQQKPGQAPRLLIYKVSNRFPGVPDRFSGSGSGTDFTLKISRVEAEDVGVYYCAQGTSVPFTFGQGTKLEIK |
| 0 | dBBDu183H V95E / dBBDu072L (antibody, name in Kabat numbering, V domains shown) VH: QVQLVESGGGLVQPGRSLRLSCAASGFTFSNAWMHWVRQAPGKGLEWVAQIKDKGNAYAAYYAPSVKGRFTISRDDSKNSIYLQMNSLKTEDTAVYYCHYEHYASASTVLPAFGVDAWGQGTTVTVSS VL: DIVMTQSPLSLPVTPGEPASISCQASQELVHMNRNTYLHWYQQKPGQAPRLLIYKVSNRFPGVPDRFSGSGSGTDFTLKISRVEAEDVGVYYCAQGTSVPFTFGQGTKLEIK |
| 0 | dBBDu183H S100aE / dBBDu072L (antibody, name in Kabat numbering, V domains shown) VH: QVQLVESGGGLVQPGRSLRLSCAASGFTFSNAWMHWVRQAPGKGLEWVAQIKDKGNAYAAYYAPSVKGRFTISRDDSKNSIYLQMNSLKTEDTAVYYCHYVHYASAETVLPAFGVDAWGQGTTVTVSS VL: DIVMTQSPLSLPVTPGEPASISCQASQELVHMNRNTYLHWYQQKPGQAPRLLIYKVSNRFPGVPDRFSGSGSGTDFTLKISRVEAEDVGVYYCAQGTSVPFTFGQGTKLEIK |
| 0 | dBBDu183H A98H / dBBDu072L (antibody, name in Kabat numbering, V domains shown) VH: QVQLVESGGGLVQPGRSLRLSCAASGFTFSNAWMHWVRQAPGKGLEWVAQIKDKGNAYAAYYAPSVKGRFTISRDDSKNSIYLQMNSLKTEDTAVYYCHYVHYHSASTVLPAFGVDAWGQGTTVTVSS VL: DIVMTQSPLSLPVTPGEPASISCQASQELVHMNRNTYLHWYQQKPGQAPRLLIYKVSNRFPGVPDRFSGSGSGTDFTLKISRVEAEDVGVYYCAQGTSVPFTFGQGTKLEIK |
| 0 | dBBDu183H V100iE / dBBDu072L (antibody, name in Kabat numbering, V domains shown) VH: QVQLVESGGGLVQPGRSLRLSCAASGFTFSNAWMHWVRQAPGKGLEWVAQIKDKGNAYAAYYAPSVKGRFTISRDDSKNSIYLQMNSLKTEDTAVYYCHYVHYASASTVLPAFGEDAWGQGTTVTVSS VL: DIVMTQSPLSLPVTPGEPASISCQASQELVHMNRNTYLHWYQQKPGQAPRLLIYKVSNRFPGVPDRFSGSGSGTDFTLKISRVEAEDVGVYYCAQGTSVPFTFGQGTKLEIK |
| 0 | dBBDu183H T100bH / dBBDu072L (antibody, name in Kabat numbering, V domains shown) VH: QVQLVESGGGLVQPGRSLRLSCAASGFTFSNAWMHWVRQAPGKGLEWVAQIKDKGNAYAAYYAPSVKGRFTISRDDSKNSIYLQMNSLKTEDTAVYYCHYVHYASASHVLPAFGVDAWGQGTTVTVSS VL: DIVMTQSPLSLPVTPGEPASISCQASQELVHMNRNTYLHWYQQKPGQAPRLLIYKVSNRFPGVPDRFSGSGSGTDFTLKISRVEAEDVGVYYCAQGTSVPFTFGQGTKLEIK |
| 0 | dBBDu183H A102E / dBBDu072L (antibody, name in Kabat numbering, V domains shown) VH: QVQLVESGGGLVQPGRSLRLSCAASGFTFSNAWMHWVRQAPGKGLEWVAQIKDKGNAYAAYYAPSVKGRFTISRDDSKNSIYLQMNSLKTEDTAVYYCHYVHYASASTVLPAFGVDEWGQGTTVTVSS VL: DIVMTQSPLSLPVTPGEPASISCQASQELVHMNRNTYLHWYQQKPGQAPRLLIYKVSNRFPGVPDRFSGSGSGTDFTLKISRVEAEDVGVYYCAQGTSVPFTFGQGTKLEIK |
